Experimental data taken from the supplement of paper PMC10126150.
± gives the standard deviation of the averaged measurements.

System: ATP
Assay: switch fluorescence ratio, 500 uM ATP over buffer (Cy3 cluster intensity, sum of 5 cycles each) (fold (ratio)); higher = stronger signal-on switching upon ATP binding; sequences stand for … in TCGTCGGCAGCGTCAGATGTGTATAAGAGACAGTTTTTTTTTTTTTTTTTTTTTTTTT…TC
Conditions: aptamer strand: ATP DNA aptamer (quencher-CACCTGGGGGAGTATTGCGGAGGAAGG + anchor), 100 nM annealed; ATP concentration: 500 uM
In short: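 Five buffer/ATP imaging cycles were run on Cy3-labelled switching-strand clusters on a modified Illumina MiSeq flow-cell, with NaOH stripping and re-annealing between cycles. In each cycle, clusters annealed to 100 nM quencher-labelled ATP aptamer were imaged in selection buffer, then after 15 min with 500 uM ATP at 22 °C. Per cluster, the fluorescence ratio is summed target-cycle over summed buffer-cycle Cy3 intensity, averaged per switch-domain sequence. Only clusters within 100-1000 RFU were kept.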
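Also: ATP exposure 15 min at 22 °C before imaging.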

| Sequence | switch fluorescence ratio |
| --- | --- |
| CTGTTTGGGG | 1.004 ± 0.0028 |
| CTGTTTTGGG | 1.03 ± 0.032 |
| CTGTTTTTTG | 0.976 ± 0.03 |
| CTTAAAGTGC | 1.05 ± 0.069 |
| CTTAAAGTTA | 1.01 ± 0.018 |
| CTTAAATTGT | 1.01 ± 0.011 |
| CTTAAATTTA | 1.02 ± 0.022 |
| CTTAACAGAA | 0.9912 ± 0.0059 |
| CTTAATTTTG | 0.973 ± 0.027 |
| CTTACAAGC | 1.04 ± 0.026 |
| CTTACGCAGC | 1.59 ± 0.016 |
| CTTACTATTC | 0.9715 ± 0.0069 |
| CTTAGAAAGC | 1.05 ± 0.022 |
| CTTAGAATCG | 1 ± 0.025 |
| CTTAGAATGA | 0.979 ± 0.025 |
| CTTAGATTTG | 0.9655 ± 0.0076 |
| CTTAGCATTG | 1.03 ± 0.023 |
| CTTAGCCACT | 1.036 ± 0.0065 |
| CTTAGCGGGA | 1.02 ± 0.025 |
| CTTAGCGGGG | 0.9827 ± 0.0064 |
| CTTAGCTTGC | 1.02 ± 0.054 |
| CTTAGGACGC | 1.22 ± 0.0055 |
| CTTAGGGATT | 0.987 ± 0.031 |
| CTTAGGTGAC | 1.034 ± 0.004 |
| CTTAGTCTTT | 1.018 ± 0.0027 |

| Sequence | switch fluorescence ratio |
| --- | --- |
| CTTAGTTAGT | 0.993 ± 0.01 |
| CTTAGTTTCG | 1.035 ± 0.0071 |
| CTTATAGTTT | 1.01 ± 0.016 |
| CTTATATCTT | 0.993 ± 0.025 |
| CTTATCTTTT | 0.986 ± 0.0097 |
| CTTATTAGCG | 1.03 ± 0.019 |
| CTTATTGAGC | 1.01 ± 0.012 |
| CTTATTTCGT | 1.001 ± 0.0018 |
| CTTCACAGGG | 1.06 ± 0.04 |
| CTTCACTACG | 1.12 ± 0.043 |
| CTTCAGGAGC | 1.69 ± 0.11 |
| CTTCAGTCTT | 1 ± 0.011 |
| CTTCATGGGT | 0.962 ± 0.013 |
| CTTCATGGTC | 0.96 ± 0.017 |
| CTTCCTATTG | 1.08 ± 0.046 |
| CTTCGGGTAC | 3.69 ± 0.79 |
| CTTCGTGCGA | 1.14 ± 0.023 |
| CTTCTCTATC | 1.01 ± 0.027 |
| CTTCTTTTGG | 0.996 ± 0.032 |
| CTTGAAACGT | 0.992 ± 0.076 |
| CTTGAAGGGG | 0.999 ± 0.036 |
| CTTGAATGCG | 0.999 ± 0.031 |
| CTTGACATA | 1.03 ± 0.011 |
| CTTGAGCAGG | 1.2 ± 0.038 |
| CTTGAGGGGA | 0.983 ± 0.032 |

| Sequence | switch fluorescence ratio |
| --- | --- |
| CTTGATAAAA | 1.01 ± 0.017 |
| CTTGATATTG | 0.999 ± 0.018 |
| CTTGATGCGA | 1.032 ± 0.0045 |
| CTTGCACCC | 1.07 ± 0.024 |
| CTTGCATTGA | 1.08 ± 0.071 |
| CTTGCCGATT | 0.968 ± 0.029 |
| CTTGCTGCTG | 0.972 ± 0.044 |
| CTTGGACGGG | 0.9706 ± 0.0021 |
| CTTGGCAAGG | 1.03 ± 0.04 |
| CTTGGCGGGC | 1.01 ± 0.04 |
| CTTGGCTGTT | 0.986 ± 0.018 |
| CTTGGGGGGT | 0.97564 ± 0.00052 |
| CTTGGGTAAG | 0.988 ± 0.033 |
| CTTGGGTATA | 1.25 ± 0.29 |
| CTTGGGTTGC | 0.9961 ± 0.0092 |
| CTTGTAACCT | 1.8 ± 0.061 |
| CTTGTAGCAG | 1.09 ± 0.021 |
| CTTGTATGGG | 1.01 ± 0.029 |
| CTTGTCCAGC | 1.04 ± 0.037 |
| CTTGTCGTTC | 1.01 ± 0.026 |
| CTTGTGAGTT | 0.979 ± 0.016 |
| CTTGTGTGGT | 1.02 ± 0.014 |
| CTTGTTAGGA | 1 ± 0.012 |
| CTTGTTAGTA | 0.987 ± 0.027 |
| CTTGTTGATT | 1.009 ± 0.0056 |

| Sequence | switch fluorescence ratio |
| --- | --- |
| CTTGTTTGAC | 0.988 ± 0.044 |
| CTTTAACGTG | 0.9718 ± 0.004 |
| CTTTAAGCAA | 4.65 ± 0.36 |
| CTTTAAGGCA | 0.981 ± 0.017 |
| CTTTAAGGGG | 1.01 ± 0.03 |
| CTTTAATTTT | 1.01 ± 0.055 |
| CTTTACGGGC | 1.02 ± 0.038 |
| CTTTATAGGA | 0.9944 ± 0.0056 |
| CTTTATAGTT | 1.02 ± 0.034 |
| CTTTATGCGA | 1.033 ± 0.0093 |
| CTTTCAAAAA | 1.03 ± 0.015 |
| CTTTCAGGCT | 0.984 ± 0.016 |
| CTTTCTTTTT | 0.992 ± 0.018 |
| CTTTGCCTAG | 0.9806 ± 0.0088 |
| CTTTGGATTG | 0.99917 ± 0.00068 |
| CTTTGGGCAA | 1.46 ± 0.089 |
| CTTTGGGGAC | 1.055 ± 0.006 |
| CTTTGGGGCG | 1.01 ± 0.044 |
| CTTTGGGTTT | 0.981 ± 0.058 |
| CTTTGGTAGG | 0.992 ± 0.025 |
| CTTTGGTATA | 0.977 ± 0.0051 |
| CTTTGGTTGA | 0.995 ± 0.031 |
| CTTTGTCGGT | 1.03 ± 0.054 |
| CTTTGTGATA | 1.04 ± 0.025 |
| CTTTTAGTTG | 0.993 ± 0.017 |

| Sequence | switch fluorescence ratio |
| --- | --- |
| CTTTTATTTA | 0.99186 ± 0.00094 |
| CTTTTGGAGT | 0.986 ± 0.05 |
| CTTTTGTCAC | 1.05 ± 0.042 |
| CTTTTGTCGT | 1.01 ± 0.028 |
| CTTTTTATGA | 1.01 ± 0.027 |
| CTTTTTATTT | 1.14 ± 0.22 |
| CTTTTTGTGG | 0.9838 ± 0.0075 |
| CTTTTTTAGA | 0.9746 ± 0.0097 |
| GAAAAAAAAA | 0.992 ± 0.023 |
| GAAAAAAAAG | 1.07 ± 0.1 |
| GAAAAAAGAT | 1.02 ± 0.014 |
| GAAAAAAGGC | 1.03 ± 0.032 |
| GAAAAAGCCC | 1.04 ± 0.031 |
| GAAAAAGGAC | 1.27 ± 0.32 |
| GAAAAAGGGA | 0.979 ± 0.026 |
| GAAAAAGGTC | 1.031 ± 0.008 |
| GAAAAATTTT | 1.02 ± 0.026 |
| GAAAAGAGTC | 1.07 ± 0.034 |
| GAAAAGCCCC | 1.09 ± 0.059 |
| GAAAAGTAAG | 1.018 ± 0.008 |
| GAAAATTATA | 1.02 ± 0.035 |
| GAAAATTATG | 1.009 ± 0.0086 |
| GAAACAGGAT | 1.02 ± 0.058 |
| GAAACCGGAG | 1.567 ± 0.015 |
| GAAACCTATT | 1.0142 ± 7.7e-05 |

| Sequence | switch fluorescence ratio |
| --- | --- |
| GAAACGAAGG | 0.9704 ± 0.0028 |
| GAAACGGTGT | 1.02 ± 0.031 |
| GAAACTTGGT | 1.004 ± 0.0065 |
| GAAAGAAGGG | 1.21 ± 0.35 |
| GAAAGAGGGA | 1.02 ± 0.079 |
| GAAAGAGTTC | 0.99729 ± 0.00094 |
| GAAAGATGAC | 1.03 ± 0.088 |
| GAAAGCGGGG | 0.968 ± 0.024 |
| GAAAGGGGCT | 0.993 ± 0.031 |
| GAAAGGGGGA | 1.02 ± 0.025 |
| GAAAGGGGTC | 1.01 ± 0.074 |
| GAAAGGGGTT | 1.02 ± 0.035 |
| GAAAGGGTCC | 1.001 ± 0.01 |
| GAAAGGTAAG | 0.9934 ± 0.0036 |
| GAAAGTAGAG | 1.01 ± 0.0018 |
| GAAAGTGCAT | 0.999 ± 0.042 |
| GAAAGTTAGG | 1.1 ± 0.14 |
| GAAATAACTC | 1.36 ± 0.43 |
| GAAATAGGTT | 0.989 ± 0.012 |
| GAAATATAAT | 1.012 ± 0.0066 |
| GAAATCGGGG | 1.05 ± 0.15 |
| GAAATCGTTC | 1.02 ± 0.019 |
| GAAATGAAGG | 0.973 ± 0.016 |
| GAAATGATTT | 1.0406 ± 6.4e-05 |
| GAAATGCGGC | 0.97935 ± 0.00044 |

| Sequence | switch fluorescence ratio |
| --- | --- |
| GAAATGGCAA | 1.03 ± 0.051 |
| GAAATGGCGT | 0.986 ± 0.038 |
| GAAATGTGAG | 0.9797 ± 0.0045 |
| GAAATTCCGC | 1.27 ± 0.088 |
| GAAATTGAGT | 1 ± 0.027 |
| GAAATTGGCA | 1.025 ± 0.004 |
| GAAATTTTGT | 0.994 ± 0.012 |
| GAACAACATG | 1.03 ± 0.051 |
| GAACACAAAA | 1.05 ± 0.032 |
| GAACAGGGGA | 1.53 ± 0.68 |
| GAACATTTCG | 1 ± 0.021 |
| GAACCGTGTT | 0.967 ± 0.036 |
| GAACCTGTGT | 0.993 ± 0.052 |
| GAACGCGTCC | 1.1 ± 0.015 |
| GAACGGCGGA | 0.9811 ± 0.002 |
| GAACGGCTCT | 1.012 ± 0.0011 |
| GAACGTTTGC | 1.11 ± 0.017 |
| GAACTAAATG | 1 ± 0.055 |
| GAACTAGGCA | 1 ± 0.012 |
| GAACTGAGTC | 1.01 ± 0.046 |
| GAACTTGCCA | 1.06 ± 0.073 |
| GAACTTGCCT | 1 ± 0.018 |
| GAACTTGGG | 1.01 ± 0.045 |
| GAACTTGTCT | 1.02 ± 0.036 |
| GAACTTTCTG | 1.006 ± 0.0063 |

| Sequence | switch fluorescence ratio |
| --- | --- |
| GAAGAACTGG | 0.991 ± 0.054 |
| GAAGAGAGGC | 0.96 ± 0.024 |
| GAAGATGGTG | 0.963 ± 0.037 |
| GAAGCACCGG | 1.08 ± 0.026 |
| GAAGCAGATG | 1.16 ± 0.033 |
| GAAGCCATAT | 1.48 ± 0.068 |
| GAAGCCGTTT | 1.01 ± 0.039 |
| GAAGCGGGTG | 1.1 ± 0.1 |
| GAAGCGTGTC | 1.02 ± 0.017 |
| GAAGCTGTAT | 1.1 ± 0.035 |
| GAAGGAACGT | 0.981 ± 0.043 |
| GAAGGACAGC | 1.05 ± 0.034 |
| GAAGGAGCAA | 2.54 ± 1.2 |
| GAAGGAGGGA | 0.987 ± 0.018 |
| GAAGGAGGGT | 0.9731 ± 0.0064 |
| GAAGGCAGCG | 1.03 ± 0.017 |
| GAAGGCGGTT | 1.029 ± 0.0037 |
| GAAGGGAGGA | 1.03 ± 0.077 |
| GAAGGGATTA | 1.01 ± 0.04 |
| GAAGGGCCTG | 1.05 ± 0.056 |
| GAAGGGGATA | 1.01 ± 0.036 |
| GAAGGGGCAG | 0.97 ± 0.014 |
| GAAGGGGCTG | 1.01 ± 0.14 |
| GAAGGGGTAC | 1.16 ± 0.15 |
| GAAGGGGTCC | 1 ± 0.042 |
